The values that follow come from US8487076.

Test [1] has as its target HLA-A2 molecule, product of the HLA-A*0201 gene, on JY cells (human). In words: flow cytometry; acid-stripped JY cells reassociated with b2m and peptide dilutions, stained with labeled mAb BB7.2. The settings on record: remark: other sources report otherwise. (In general: A flow cytometer gives signals particle by particle.)
Test [2] has as its target HLA-A24 molecule, product of the HLA-A*2402 gene, on C1R-A24 cells (human). In words: flow cytometry; acid-stripped C1R-A24 cells reassociated with b2m and peptide dilutions, stained with labeled mAb 17A12. The following applies: remark: other sources report otherwise.

B1: SEQ ID NO 61 (…), HLA-A2-binding 10 amino acid peptide of survivin (peptide)
peptide: FLKDHRISTF
The molecule B1 registered a -log Kd (-log Kd (Kd in molar concentration)) in test [1] of 5.53.

B2: SEQ ID NO 1 (…), HLA-A24-binding 9 amino acid peptide of survivin (peptide)
peptide: TLPPAWQPF
As to B2, the -log Kd (-log Kd (Kd in molar concentration)) in test [2] came to 8.26.

B3: SEQ ID NO 23 (…), HLA-A2-binding 9 amino acid peptide of survivin (peptide)
peptide: TLPPAWQPF
Molecule B3 displayed a -log Kd (-log Kd (Kd in molar concentration)) in test [1] of 5.36.

B4: SEQ ID NO 44 (…), HLA-A24-binding 10 amino acid peptide of survivin (peptide)
peptide: FLKDHRISTF
B4 had a -log Kd (-log Kd (Kd in molar concentration)) in test [2] of 7.01.
